The source of these data is patent US20250109207A1.

Experiment [1] deals with Human FcγRIIa (H131) (human) (UniProt P12318). As to the kind of experiment: SPR (Biacore); His-tagged FcγR captured on anti-penta-His chip, antibody injected. On the technique in general: SPR reads the build-up and loss of mass on a sensor chip optically.
Experiment [2] concerns the target Human FcγRIIb (human) (UniProt P31994). Described as above.
The target in experiment [3] is Human FcγRIIIa (V176) (human) (UniProt P08637). Described as above.
Human FcγRIIIa (V176) (human), sequence (P08637 17-208 F176V limits assumed): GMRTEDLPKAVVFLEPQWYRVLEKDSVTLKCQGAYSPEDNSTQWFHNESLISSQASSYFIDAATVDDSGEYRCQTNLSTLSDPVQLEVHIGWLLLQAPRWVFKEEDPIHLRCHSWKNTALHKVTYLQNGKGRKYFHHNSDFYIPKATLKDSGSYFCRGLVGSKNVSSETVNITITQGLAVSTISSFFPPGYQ
Experiment [4] addresses Human FcγRIIa (R131) (human) (UniProt P12318). The experiment is described as above.
Experiment [5] deals with Human FcγRIIa (H131) (human) (UniProt P12318). As to the kind of experiment: SPR (Biacore); His-tagged FcγR captured, antibody injected; kinetic fit or steady state.
The target in experiment [6] is Human FcγRIIb (human) (UniProt P31994). Described as above.
Human FcγRIIb (human), sequence (P31994 46-217 limits assumed): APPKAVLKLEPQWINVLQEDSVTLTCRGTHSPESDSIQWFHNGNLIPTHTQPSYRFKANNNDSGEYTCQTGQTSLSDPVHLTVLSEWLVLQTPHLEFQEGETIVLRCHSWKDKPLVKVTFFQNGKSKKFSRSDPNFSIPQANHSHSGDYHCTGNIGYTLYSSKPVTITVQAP
Experiment [7] has as its target Human FcγRIIa (R131) (human) (UniProt P12318). The description is as above.

Human FcγRIIa (R131) (human), sequence (P12318 36-218 H167R limits assumed): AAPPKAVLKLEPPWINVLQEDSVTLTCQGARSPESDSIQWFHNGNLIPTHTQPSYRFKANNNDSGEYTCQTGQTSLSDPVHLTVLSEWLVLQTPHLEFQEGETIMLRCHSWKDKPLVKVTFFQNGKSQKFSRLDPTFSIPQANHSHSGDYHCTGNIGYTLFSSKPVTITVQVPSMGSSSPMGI
Human FcγRIIa (H131) (human), sequence (P12318 36-218 limits assumed): as the sequence (P12318 36-218 H167R limits assumed) above, with R132H counted along it

B1: mAb3, IgG4s (antibody, part only; not given: variable domains and light chain, not shown: another chain or arm of the molecule)
Fc: ESKYGPPCPPCPAPPVAGPSVFLFPPKPKDTLMISRTPEVTCVVVDVSQEDPEVQFNWYVDGVEVHNAKTKPREEQFNSTYRVVSVLTVLHQDWLNGKEYKCKVSNKGLPSSIEKTISKAKGQPREPQVYTLPPSQEEMTKNQVSLTCLVKGFYPSDIAVEWESNGQPENNYKTTPPVLDSDGSFFLYSRLTVDKSRWQEGNVFSCSVMHEALHNHYTQKSLSLSLGK
As usually defined, the Kd is the equilibrium constant for the complex coming apart. A higher Kd goes with a looser complex. B1: the binding signal (RU) in experiment [1] was determined as 419 RU; in the experiment with Human FcγRIIb (human) [2] it was 226 RU; in experiment [3], 34 RU; in experiment [4] it was 340 RU. For the same molecule, the Kd came to 1610 nM in experiment [5], 12300 nM with Human FcγRIIb (human) [6] and 1320 nM in experiment [7].
